Laboratory results: US20220324934A1 (Stanford University, published 2022)

T1: IL-2Rβ (UniProt P14784 27-240, limits assumed, biotinylated (site not stated))
T1 construct: also called CD122; IL-2Rbeta
T1 sequence (looked up): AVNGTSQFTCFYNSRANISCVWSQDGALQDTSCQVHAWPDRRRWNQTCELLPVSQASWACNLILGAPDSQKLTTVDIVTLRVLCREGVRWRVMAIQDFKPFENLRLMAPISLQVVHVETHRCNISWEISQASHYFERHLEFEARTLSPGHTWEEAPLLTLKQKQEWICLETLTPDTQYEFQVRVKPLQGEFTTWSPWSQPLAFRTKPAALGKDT


Columns and labels:
IL-2Rβ [1] = biological target: T1, IL-2Rβ; assay: SPR Biacore T100, steady-state; biotinylated IL-2Rβ on chip
Experimental: (§1) To perform the surface plasmon resonance (SPR) analysis, the test variant protein was made in Expi293 as described previously. […] Experiments were performed on a BlAcore® T100 (GE Healthcare, Piscataway, N.J.).

IL-2Rβ [2] = biological target: T1, IL-2Rβ; assay: SPR Biacore T100, kinetic fit; biotinylated IL-2Rβ on chip
Experimental: as §1

| Kd (IL-2Rβ [1]) | Kd (IL-2Rβ [2]) | koff (IL-2Rβ [2]) | Binder |
| --- | --- | --- | --- |
| 16.2 nM | 2.1 nM | 0.0015 s⁻¹ | Super-2 (H9) IL-2 variant, expressed as MSA fusion protein (ligand, not shown: large carriers; small tags and cut ends, also called H9 super-2; MSA-H9-super-2) APTSSSTKKTQLQLEHLLLDLQMILNGINNYKNPKLTRMLTFKFYMPKKATELKHLQCLEEELKPLEEVLNLAQSKNFHFDPRDVVSNINVFVLELKGSETTFMCEYADETATIVEFLNRWITFCQSIISTLT |
| 196 nM | 171 nM | 0.072 s⁻¹ | in silico designed IL-2 variant SEQ ID NO: 14, MSA fusion protein (ligand, not shown: large carriers; small tags and cut ends) APTSSSTKKTQLQLEHLLLDLQMILNMLNNYDNPKLTRMLTFKFYMPKKATELKHLQCLEEELKPLEEALNLAQSKNFHLDPRDLISNINVIVLELKGSETTFMCEYADETATIIEFLNRWITFCQSIISTLT |
| 268 nM | 241 nM | 0.091 s⁻¹ | in silico designed IL-2 variant SEQ ID NO: 17, MSA fusion protein (ligand, not shown: large carriers; small tags and cut ends) APTSSSTKKTQLQLEHLLLDLQMILNMLNNYDNPKLTRLLTFKFYMPKKATSLKHLQCLEEELKPLEEALNLAQSKNFHLDPRDLISNINVIVLELKGSETTFMCEYADETATIIEFLNRWITFCQSIISTLT |
| 67.6 nM | 51.2 nM | 0.023 s⁻¹ | in silico designed IL-2 variant SEQ ID NO: 12, MSA fusion protein (ligand, not shown: large carriers; small tags and cut ends) APTSSSTKKTQLQLEHLLLDLQMILNMLNNYDNPKLTRMLTFKFYMPKKATELKHLQCLEEELKPLEEALNHAADDKDTIRDLISNINVIVLELKGSETTFMCEYADETATIIEFLNRWITFCQSIISTLT |
| 85.4 nM | 56.7 nM | 0.0026 s⁻¹ | in silico designed IL-2 variant SEQ ID NO: 7, MSA fusion protein (ligand, not shown: large carriers; small tags and cut ends) APTSSSTKKTQLQLEHLLLDLQMILNMLNNYDNPKLTRMLTFKFYMPKKATELKHLQCLEEELKPLEEALNQADSTDETVRDLISNINVIVLELKGSETTFMCEYADETATIIEFLNRWITFCQSIISTLT |
| 207 nM | 174 nM | 0.036 s⁻¹ | in silico designed IL-2 variant SEQ ID NO: 13, MSA fusion protein (ligand, not shown: large carriers; small tags and cut ends) APTSSSTKKTQLQLEHLLLDLQMILNMLNNASNPSLTRMLTFKFYMPKKATELKHLQCLEEELKPLEEALNTAADDQDKIRDLISNINVIVLELKGSETTFMCEYADETATIIEFLNRWITFCQSIISTLT |
| 14.2 nM | 5.9 nM | 0.0044 s⁻¹ | in silico designed IL-2 variant SEQ ID NO: 8, MSA fusion protein (ligand, not shown: large carriers; small tags and cut ends) APTSSSTKKTQLQLEHLLLDLQMILNMLNNYDNPKLTRLLTFKFYMPKKATSLKHLQCLEEELKPLEEALNAADSTDERIRDVVSNINVFVLELKGSETTFMCEYADETATIIEFLNRWITFCQSIISTLT |
| 411 nM | 332 nM | 0.055 s⁻¹ | in silico designed IL-2 variant SEQ ID NO: 2, MSA fusion protein (ligand, not shown: large carriers; small tags and cut ends) APTSSSTKKTQLQLEHLLLDLQMILNMLNNYDNPKLTRLLTFKFYMPKKATELKHLQCLEEELKPLEEALNAAGDDPKTIRDLISNINVIVLELKGSETTFMCEYADETATIIEFLNRWITFCQSIISTLT |
| 398 nM | 315 nM | 0.046 s⁻¹ | in silico designed IL-2 variant SEQ ID NO: 6, MSA fusion protein (ligand, not shown: large carriers; small tags and cut ends) APTSSSTKKTQLQLEHLLLDLQMILNMLNNYENPKLTRMLTFKFYMPKKATSLKHLQCLEEELKPLEEALNQAGDDPKTIRDLISNINVIVLELKGSETTFMCEYADETATIIEFLNRWITFCQSIISTLT |

The remaining lines, values behind:

| Binder | Kd (IL-2Rβ [1]) | Kd (IL-2Rβ [2]) | koff (IL-2Rβ [2]) |
| --- | --- | --- | --- |
| in silico designed IL-2 variant SEQ ID NO: 16, MSA fusion protein (ligand, not shown: large carriers; small tags and cut ends) APTSSSTKKTQLQLEHLLLDLQMILNMLNNYDNPKLTRLLTFKFYMPKKATSLKHLQCLEEELKPLEEALNQAQSKNFHLDPRDLISNINVIVLELKGSETTFMCEYADETATIIEFLNRWITFCQSIISTLT | 290 nM | 221 nM | 0.071 s⁻¹ |
| in silico designed IL-2 variant SEQ ID NO: 15, MSA fusion protein (ligand, not shown: large carriers; small tags and cut ends) APTSSSTKKTQLQLEHLLLDLQMILNMLNNYDNPKLTRMLTFKFYMPKKATELKHLQCLEEELKPLEEALNQAQSKNFHLDPRDLISNINVIVLELKGSETTFMCEYADETATIIEFLNRWITFCQSIISTLT | 498 nM | 227 nM | 0.064 s⁻¹ |
| in silico designed IL-2 variant SEQ ID NO: 4, MSA fusion protein (ligand, not shown: large carriers; small tags and cut ends) APTSSSTKKTQLQLEHLLLDLQMILNMLNNYDNPKLTRLLTFKFYMPKKATSLKHLQCLEEELKPLEEALNQAGDDPKTIRDLISNINVIVLELKGSETTFMCEYADETATIIEFLNRWITFCQSIISTLT | 389 nM | 339 nM | 0.05 s⁻¹ |
| in silico designed IL-2 variant SEQ ID NO: 3, MSA fusion protein (ligand, not shown: large carriers; small tags and cut ends) APTSSSTKKTQLQLEHLLLDLQMILNMLNNYDNPKLTRLLTFKFYMPKKATSLKHLQCLEEELKPLEEALNAAGDDPKTIRDLISNINVIVLELKGSETTFMCEYADETATIIEFLNRWITFCQSIISTLT | 366 nM | 282 nM | 0.042 s⁻¹ |
| in silico designed IL-2 variant SEQ ID NO: 1, MSA fusion protein (ligand, not shown: large carriers; small tags and cut ends) APTSSSTKKTQLQLEHLLLDLQMILNMLNNYDNPKLTRLLTFKFYMPKKATSLKHLQCLEEELKPLEEALNAAGDDPKTIRDVVSNINVFVLELKGSETTFMCEYADETATIIEFLNRWITFCQSIISTLT | 61.3 nM | 25 nM | 0.0066 s⁻¹ |
| in silico designed IL-2 variant SEQ ID NO: 10, MSA fusion protein (ligand, not shown: mouse serum albumin (MSA), fusion partner) APTSSSTKKTQLQLEHLLLDLQMILNMLNNYDNPKLTRLLTFKFYMPKKATSLKHLQCLEEELKPLEEALNQASKDQKKVRDVVSNINVFVLELKGSETTFMCEYADETATIIEFLNRWITFCQSIISTLT | 137 nM | 105 nM | 0.015 s⁻¹ |
| in silico designed IL-2 variant SEQ ID NO: 5, MSA fusion protein (ligand, not shown: large carriers; small tags and cut ends) APTSSSTKKTQLQLEHLLLDLQMILNMLNNYDNPKLTRLLTFKFYMPKKATSLKHLQCLEEELKPLEEALNDAGDDPKTIRDLISNINVIVLELKGSETTFMCEYADETATIIEFLNRWITFCQSIISTLT | 362 nM | 292 nM | 0.047 s⁻¹ |
| in silico designed IL-2 variant SEQ ID NO: 9, MSA fusion protein (ligand, not shown: large carriers; small tags and cut ends) APTSSSTKKTQLQLEHLLLDLQMILNMLNNYDNPKLTRLLTFKFYMPKKATSLKHLQCLEEELKPLEEALNQADSTDSRIRDLISNINVIVLELKGSETTFMCEYADETATIIEFLNRWITFCQSIISTLT | 378 nM | 330 nM | 0.12 s⁻¹ |
| in silico designed IL-2 variant SEQ ID NO: 11, MSA fusion protein (ligand, not shown: large carriers; small tags and cut ends) APTSSSTKKTQLQLEHLLLDLQMILNMLNNYSNPKLTRLLTFKFYMPKKATSLKHLQCLEEELKPLEEALNLASDDQDKVRDVVSNINVFVLELKGSETTFMCEYADETATIIEFLNRWITFCQSIISTLT | 22.7 nM | 8.7 nM | 0.0036 s⁻¹ |
